Assay results as given in patent US20250163145A1 (SHIONOGI, published 2025).
Where a chain is given by its changes, count along the chain named. Names and notes keep the numbering of the source. Where no end group is shown, it is not given here.

B1: humanized 15H11 CDR graft IGKV1-39 / IGHV1-2 (antibody, human IgG4 S228P, kappa, V domains shown)
VH: QVQLVQSGAEVKKPGASVKVSCKASGYTFTDYNMHWVRQAPGQGLEWMGRINPKNGVINSNEKFKDRVTMTRDTSISTAYMELSRLRSDDTAVYYCARSYYGGNTDAYWGQGTLVTVSS
VL: DIQMTQSPSSLSASVGDRVTITCRASESVDNYGISFMNWYQQKPGKAPKLLIYAASSQGSGVPSRFSGSGSGTDFTLTISSLQPEDFATYYCQQSKEFPWTFGGGTKVEIKR
notes: hIgG4Pro/hIgK
B2: humanized 15H11 CDR graft IGKV1-39 / IGHV7-4-1 (R94P) (antibody, human IgG4 S228P, kappa, V domains shown)
VH: QVQLVQSGSELKKPGASVKVSCKASGYTFTDYNMHWVRQAPGQGLEWMGRINPKNGVINSNEKFKDRFVFSLDTSVSTAYLQISSLKAEDTAVYYCAPSYYGGNTDAYWGQGTLVTVSS
VL: B1 VL
notes: hIgG4Pro/hIgK
B3: humanized 15H11 CDR graft IGKV3-11 / IGHV1-2 (R94P) (antibody, human IgG4 S228P, kappa, V domains shown)
VH: B1 VH with R98P
VL: EIVLTQSPATLSLSPGERATLSCRASESVDNYGISFMNWYQQKPGQAPRLLIYAASSQGSGIPARFSGSGSGTDFTLTISSLEPEDFAVYYCQQSKEFPWTFGGGTKVEIKR
notes: hIgG4Pro/hIgK
B4: humanized 15H11 CDR graft IGKV4-1 / IGHV1-2 (R94P) (antibody, human IgG4 S228P, kappa, V domains shown)
VH: B1 VH with R98P
VL: DIVMTQSPDSLAVSLGERATINCRASESVDNYGISFMNWYQQKPGQPPKLLIYAASSQGSGVPDRFSGSGSGTDFTLTISSLQAEDVAVYYCQQSKEFPWTFGGGTKVEIKR
notes: hIgG4Pro/hIgK
B5: humanized 15H11 CDR graft IGKV7-3 / IGHV1-3 (R94P) (antibody, human IgG4 S228P, kappa, V domains shown)
VH: B1 VH with G44R, M70I, I76A, R85S, D89E, R98P
VL: DIVLTQSPASLAVSPGQRATITCRASESVDNYGISFMNWYQQKPGQPPKLLIYAASSQGSGVPARFSGSGSGTDFTLTINPVEANDTANYYCQQSKEFPWTFGGGTKVEIKR
notes: hIgG4Pro/hIgK
B6: humanized 15H11 CDR graft IGKV7-3 / IGHV1-18 (R94P) (antibody, human IgG4 S228P, kappa, V domains shown)
VH: B1 VH with R72T, I76T, S84R, R85S, R98P
VL: B5 VL
notes: hIgG4Pro/hIgK
B7: humanized 15H11 CDR graft IGKV7-3 / IGHV1-46 (R94P) (antibody, human IgG4 S228P, kappa, V domains shown)
VH: B1 VH with I76T, A79V, R85S, D89E, R98P
VL: B5 VL
notes: hIgG4Pro/hIgK
B8: humanized 15H11 CDR graft IGKV4-1 / IGHV1-3 (R94P) (antibody, human IgG4 S228P, kappa, V domains shown)
VH: B1 VH with G44R, M70I, I76A, R85S, D89E, R98P
VL: B4 VL
notes: hIgG4Pro/hIgK
B9: humanized 15H11 CDR graft IGKV7-3 / IGHV1-2 (antibody, human IgG4 S228P, kappa, V domains shown)
VH: B1 VH
VL: B5 VL
notes: hIgG4Pro/hIgK
B10: humanized 15H11 CDR graft IGKV3-20 / IGHV1-2 (R94P) (antibody, human IgG4 S228P, kappa, V domains shown)
VH: B1 VH with R98P
VL: B3 VL with S81R
notes: hIgG4Pro/hIgK
B11: humanized 15H11 CDR graft IGKV3-11 / IGHV1-46 (R94P) (antibody, human IgG4 S228P, kappa, V domains shown)
VH: B1 VH with I76T, A79V, R85S, D89E, R98P
VL: B3 VL
notes: hIgG4Pro/hIgK
B12: humanized 15H11 CDR graft IGKV1-39 / IGHV1-18 (R94P) (antibody, human IgG4 S228P, kappa, V domains shown)
VH: B1 VH with R72T, I76T, S84R, R85S, R98P
VL: B1 VL
notes: hIgG4Pro/hIgK
B13: humanized 15H11 CDR graft IGKV7-3 / IGHV1-2 (R94P) (antibody, human IgG4 S228P, kappa, V domains shown)
VH: B1 VH with R98P
VL: B5 VL
notes: hIgG4Pro/hIgK
B14: humanized 15H11 CDR graft IGKV3-11 / IGHV1-18 (R94P) (antibody, human IgG4 S228P, kappa, V domains shown)
VH: B1 VH with R72T, I76T, S84R, R85S, R98P
VL: B3 VL
notes: hIgG4Pro/hIgK
B15: humanized 15H11 CDR graft IGKV3-11 / IGHV1-2 (antibody, human IgG4 S228P, kappa, V domains shown)
VH: B1 VH
VL: B3 VL
notes: hIgG4Pro/hIgK
B16: humanized 15H11 CDR graft IGKV3-20 / IGHV1-46 (R94P) (antibody, human IgG4 S228P, kappa, V domains shown)
VH: B1 VH with I76T, A79V, R85S, D89E, R98P
VL: B3 VL with S81R
notes: hIgG4Pro/hIgK
B17: humanized 15H11 CDR graft IGKV1-39 / IGHV1-3 (R94P) (antibody, human IgG4 S228P, kappa, V domains shown)
VH: B1 VH with G44R, M70I, I76A, R85S, D89E, R98P
VL: B1 VL
notes: hIgG4Pro/hIgK
B18: humanized 15H11 CDR graft IGKV1-39 / IGHV1-46 (R94P) (antibody, human IgG4 S228P, kappa, V domains shown)
VH: B1 VH with I76T, A79V, R85S, D89E, R98P
VL: B1 VL
notes: hIgG4Pro/hIgK
B19: humanized 15H11 CDR graft IGKV4-1 / IGHV1-18 (R94P) (antibody, human IgG4 S228P, kappa, V domains shown)
VH: B1 VH with R72T, I76T, S84R, R85S, R98P
VL: B4 VL
notes: hIgG4Pro/hIgK
B20: humanized 15H11 CDR graft IGKV3-20 / IGHV1-18 (R94P) (antibody, human IgG4 S228P, kappa, V domains shown)
VH: B1 VH with R72T, I76T, S84R, R85S, R98P
VL: B3 VL with S81R
notes: hIgG4Pro/hIgK
B21: humanized 15H11 CDR graft IGKV3-11 / IGHV1-3 (R94P) (antibody, human IgG4 S228P, kappa, V domains shown)
VH: B1 VH with G44R, M70I, I76A, R85S, D89E, R98P
VL: B3 VL
notes: hIgG4Pro/hIgK
B22: humanized 15H11 CDR graft IGKV4-1 / IGHV1-2 (antibody, human IgG4 S228P, kappa, V domains shown)
VH: B1 VH
VL: B4 VL
notes: hIgG4Pro/hIgK
B23: humanized 15H11 CDR graft IGKV4-1 / IGHV1-46 (R94P) (antibody, human IgG4 S228P, kappa, V domains shown)
VH: B1 VH with I76T, A79V, R85S, D89E, R98P
VL: B4 VL
notes: hIgG4Pro/hIgK
B24: humanized 15H11 CDR graft IGKV3-20 / IGHV1-2 (antibody, human IgG4 S228P, kappa, V domains shown)
VH: B1 VH
VL: B3 VL with S81R
notes: hIgG4Pro/hIgK
B25: humanized 15H11 CDR graft IGKV3-20 / IGHV1-3 (R94P) (antibody, human IgG4 S228P, kappa, V domains shown)
VH: B1 VH with G44R, M70I, I76A, R85S, D89E, R98P
VL: B3 VL with S81R
notes: hIgG4Pro/hIgK
B26: humanized 15H11 CDR graft IGKV7-3 / IGHV7-4-1 (R94P) (antibody, human IgG4 S228P, kappa, V domains shown)
VH: B2 VH
VL: B5 VL
notes: hIgG4Pro/hIgK
B27: humanized 15H11 CDR graft IGKV4-1 / IGHV7-4-1 (R94P) (antibody, human IgG4 S228P, kappa, V domains shown)
VH: B2 VH
VL: B4 VL
notes: hIgG4Pro/hIgK
B28: humanized 15H11 CDR graft IGKV3-11 / IGHV7-4-1 (R94P) (antibody, human IgG4 S228P, kappa, V domains shown)
VH: B2 VH
VL: B3 VL
notes: hIgG4Pro/hIgK
B29: humanized 15H11 CDR graft IGKV3-20 / IGHV7-4-1 (R94P) (antibody, human IgG4 S228P, kappa, V domains shown)
VH: B2 VH
VL: B3 VL with S81R
notes: hIgG4Pro/hIgK

Target: T1, epitope peptide Cys-CE3C long (also: biotin label, site not given here)
T1 peptide: CSVNVDKQPKYEYSL
Assay: ELISA, supernatant IgG on anti-human IgG plate, biotin-peptide + streptavidin-HRP; titer per unit IgG
Protocol: The amount of IgG in the supernatant was determined by the following method. To evaluate the amount of IgG in the supernatant, the culture supernatant was added to an anti-human IgG antibody (manufactured by Jackson) immobilized plate, after reacting at room temperature for 3 hours, washed twice with ELISA wash buffer, and HRP-labeled anti-human IgG antibody (manufactured by Jackson) was reacted at 4° C. overnight. After washing twice with ELISA wash buffer and developing color by adding TMB-Substrate Chromogen (manufactured by Thermo Fisher Scientific), the reaction was stopped with an equal volume of 0.5N sulfuric acid, and the absorbance at 450 nm was measured to calculate (A) the dilution factor of the culture supernatant at which the OD was 1.0.
The titer of IgG in the supernatant against the epitope peptide was determined by the following method. In order to evaluate the titer of IgG in the supernatant against epitope peptides, the culture supernatant was added to an anti-human IgG antibody (manufactured by Jackson) immobilized plate, reacted for 3 hours at room temperature, and then washed twice with ELISA wash buffer, and a biotin-labeled epitope peptide (Cys-CE3C long: SEQ ID NO: 13) and Streptavidin-HRP (manufactured by PIERCE) were added and reacted overnight at 4° C. After washing twice with ELISA wash buffer and developing color by adding TMB-Substrate Chromogen (manufactured by Thermo Fisher Scientific), the reaction was stopped with an equal volume of 0.5N sulfuric acid, the absorbance at 450 nm was measured to calculate (B) the dilution ratio of the culture supernatant at which the OD was 1.0.
The titer (ratio) against the epitope peptide (Cys-CE3C long: SEQ ID NO: 13) per unit IgG amount was calculated as (B)/(A).

Binder	(B)/(A) titer (ratio) against the epitope peptide per unit IgG amount
B1	0.03
B2	0.16
B3	0.15
B4	0.18
B5	0.21
B6	0.24
B7	0.18
B8	0.15
B9	0.04
B10	0.12
B11	0.12
B12	0.13
B13	0.22
B14	0.15
B15	0.05
B16	0.09
B17	0.12
B18	0.09
B19	0.13
B20	0.13
B21	0.12
B22	0.03
B23	0.13
B24	0.04
B25	0.12
B26	0.26
B27	0.21
B28	0.18
B29	0.15
